Results: patent US5834273A, “Heat-stable and water soluble modified enzymes” (Wako Pure Chemical Industries, Ltd., priority 1991, dated 1998)

Molecular target: T1, XOD (Bos taurus, UniProt P80457)
T1 construct: purchased Boehringer Mannheim GmbH
Test: Thermal stability of XOD
Type: physicochemical, cow
Conditions: 75 min, pH 7.0, 0.2 U/ml
Description: Measuring Method of XOD Activity
The method described in Method of Enzymatic Analysis, vol. 3, pages 212, 1983.
To 2 ml of aqueous solution containing 5 mg of pyromellitic acid-modified dextran obtained in Example 1(1), 65 mg of WSC was added. To the resulting solution maintained at pH 6.0 using a pH-stat, 0.5 ml of 10 mM phosphate buffer solution (pH 7.0) containing 10 mg of XOD (mfd. by Boehringer Mannheim GmbH., derived from cow milk) was added and reacted at 50° C. for 24 hours.
The thus obtained modified XOD and the intact XOD were dissolved in 20 mM phosphate buffer solution (pH 7.0) in an amount of 0.2 U/ml, respectively,and stored at a predetermined temperature for 75 min. to measure the change of residual activity.

T1 sequence (P80457 whole entry): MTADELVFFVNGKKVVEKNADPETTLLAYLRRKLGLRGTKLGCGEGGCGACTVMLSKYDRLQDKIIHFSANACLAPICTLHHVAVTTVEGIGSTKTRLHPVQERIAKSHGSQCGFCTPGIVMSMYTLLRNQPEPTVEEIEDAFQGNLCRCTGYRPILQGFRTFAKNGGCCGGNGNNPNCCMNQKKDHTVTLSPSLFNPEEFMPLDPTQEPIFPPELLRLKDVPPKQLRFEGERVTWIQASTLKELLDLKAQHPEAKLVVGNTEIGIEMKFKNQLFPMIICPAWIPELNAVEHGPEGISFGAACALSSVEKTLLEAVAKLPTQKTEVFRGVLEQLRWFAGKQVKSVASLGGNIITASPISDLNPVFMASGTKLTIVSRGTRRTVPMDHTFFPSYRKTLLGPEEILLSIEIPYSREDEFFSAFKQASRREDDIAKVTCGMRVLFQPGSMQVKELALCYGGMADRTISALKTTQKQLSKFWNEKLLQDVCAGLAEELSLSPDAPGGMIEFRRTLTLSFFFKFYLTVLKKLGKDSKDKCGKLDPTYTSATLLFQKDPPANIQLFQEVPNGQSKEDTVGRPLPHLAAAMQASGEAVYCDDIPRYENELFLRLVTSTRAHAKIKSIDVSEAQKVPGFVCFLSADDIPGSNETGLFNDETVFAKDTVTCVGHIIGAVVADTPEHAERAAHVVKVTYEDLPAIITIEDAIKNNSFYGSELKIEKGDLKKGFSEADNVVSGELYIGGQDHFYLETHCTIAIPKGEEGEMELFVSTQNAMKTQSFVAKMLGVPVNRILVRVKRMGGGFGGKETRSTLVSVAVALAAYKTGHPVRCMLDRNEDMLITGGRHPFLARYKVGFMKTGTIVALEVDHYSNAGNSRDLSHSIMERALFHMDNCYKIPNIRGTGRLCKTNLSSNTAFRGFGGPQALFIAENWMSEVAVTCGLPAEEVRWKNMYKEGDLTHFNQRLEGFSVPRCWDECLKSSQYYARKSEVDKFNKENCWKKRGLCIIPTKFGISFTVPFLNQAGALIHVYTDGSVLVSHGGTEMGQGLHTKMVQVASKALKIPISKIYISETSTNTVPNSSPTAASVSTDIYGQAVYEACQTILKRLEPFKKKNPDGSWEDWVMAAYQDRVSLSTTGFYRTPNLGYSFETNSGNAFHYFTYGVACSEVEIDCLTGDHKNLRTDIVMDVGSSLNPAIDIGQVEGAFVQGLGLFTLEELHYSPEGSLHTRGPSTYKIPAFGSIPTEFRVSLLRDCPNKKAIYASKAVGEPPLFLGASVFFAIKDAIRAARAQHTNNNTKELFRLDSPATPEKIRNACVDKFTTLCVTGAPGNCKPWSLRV

How did the Residual activity (56 °C) turn out when “Intact XOD: xanthine oxidase (E.C.1.2.3.2), mfd. by Boehringer Mannheim GmbH., derived from cow milk” was run?
Its Residual activity is 40.5%.

What about the Residual activity (58 °C) of the same substance?
The Residual activity was 31.2%.

What about the Residual activity (60 °C) of the same substance?
The Residual activity was 23.4%.
